Data published in article PMC9094124.

Columns and labels:
[1] = target: c-JO4 (cGMP-compliant JO4 junction opener protein) (human adenovirus serotype 3); test: SEC + other: negative-stain electron microscopy; SEC on Superdex 200 Increase 10/300 in TBS, 1 mL/min; EM with 1% sodium silicotungstate pH 7.0, protein at 0.1 mg/ml
[2] = target: c-JO4 (cGMP-compliant JO4 junction opener protein) (human adenovirus serotype 3); test: SDS-PAGE, not boiled and not reduced; 4-15% gradient gel, running buffer with 0.1% SDS, 1 ug protein, sample not boiled and not reduced

Q: How did the stoichiometry N [1] turn out when “c-JO4 (cGMP-compliant JO4 junction opener protein) (domain or fragment)” was run?
A: Its stoichiometry N is 6.

Q: What about the stoichiometry N [2] of the same substance?
A: Its stoichiometry N is 3.
